The results in this text go back to publication PMC7012691.

Substrate in the series: O=[N+]([O-])c1ccc(O[C@H]2O[C@H](CO)[C@@H](O)[C@H](O)[C@@H]2O)cc1
In words: purified protein. In kind it is biochemical, Enterococcus faecalis. Particulars: apparent, MES 100 mM, pH 6.0, CaCl2 4 mM, 37 °C, 10 min.

B1: EfMan-I (Enterococcus faecalis V583) (protein)
chain: MNIQAIDTRHGTANQHSFSNGNCLPYTGVPFGMNFYAPQTTDQKGSWWFHPEDRTFQGYRVTHQPSPWMGDFSHLLMTPVSGSLSELSLFHAQSSYRPEESLFSPVEINLTQLRYQITSQLIPSMYGGILTIDYQQKDNHLLLTLPGRYQVKQLDDHQVAVKVINYSGCEDPDFSFYFVLHFEQPLTKWFAPSSGEDGKILLSFGNIAQQVVHFSSSFISEKQAQLNLAREISLRSTEMLQQGIADWHNYFDRLKVTHENPEHTKTFYHTLYRTFLFPQTFYELDENQQPIHYDTFSQTVRPGVLYTNNGFWDTYKTVYPLFSLIAQEKYEEMLEGFLNSYNETGFLPKWLSPDERGLMPGTLIDAVIADAAVKKIRPDLMPQFLEAMKKGATQQSERENYGRQGTLDYLKYGYVPSTYHESVNHTLDYAYSDFCISQVAKTLNDSETATFYRQQALNYQQLFNPETGFMQAKDTEGNFRPDFLDIRWGKDYAEGSAWQSSFAVYQDFAGLIKLYGSELAFEKKLIQLCNQAPNFNVEGYGFEIHEMSEMAAIDFGQLAISNQPSFHYPFLFSYIGKPEMAQPLLKQLMQTFDASPTGYPGDEDNGSMSAWYIFNSLGFYPVTPGTGEYVIGMPLVQTAEVKLSNGKQLTIQTSPNKVQQQFIHEIQLNQEKHTAPYFTHQELLNGGTLDYQLGIVPNPQNTAERPFSLSTEK
By Km is commonly meant the concentration of substrate that gives half-maximal velocity. The kcat is the maximal rate divided by the concentration of active sites. The term kcat/Km denotes the second-order rate constant that governs catalysis at low substrate concentration. As for B1, the Km came out at 11 ± 1.7 mM, the kcat turned out to be 0.49 ± 0.03 s⁻¹ and the kcat/Km turned out to be 47 M⁻¹ s⁻¹.
